Among the data in the Human Domainome abundance scans (Beltran et al. 2025) are abundance fitness values, retold here.

The chains are these.
B1: Telomeric repeat-binding factor 2, residues 489 to 542; numbered along this chain, Q15554 (parent)
chain: KQKWTVEESEWVKAGVQKYGEGNWAAISKNYPFVNRTAVMIKDRWRTMKRLGMN

± gives the uncertainty stated by the source.

The variants in this data set derive from B1. Briefly: abundance fitness (aPCA) (normalised: wild type 0, dead -1); higher = more abundant; growth selection in yeast, the domain comes from the species named. The conditions noted are these: Homo sapiens.
With Y19P, the abundance fitness is -0.083 ± 0.16. Take Y19R: the abundance fitness is -0.162 ± 0.093.

With Y19Q, the abundance fitness is -0.225 ± 0.099.

Y19H: the abundance fitness is -0.28 ± 0.079. In the case of Q2E, the abundance fitness turned out to be 0.254 ± 0.36. Consider Q2L, for which the abundance fitness was -0.017 ± 0.067. For Q2G the value was -0.163 ± 0.068; for Q2A, -0.138 ± 0.1. With Q2V, the abundance fitness worked out at 0.271 ± 0.093. Take Q2N: the abundance fitness was 0.333 ± 0.37. For the variant Q2D, the abundance fitness was 0.184 ± 0.07.

For the variant Q2W, the abundance fitness was -0.34 ± 0.14. The value for Q2R was -0.202 ± 0.082. Q2H: the abundance fitness was 0.518 ± 0.13.

Regarding Q2S, the abundance fitness is -0.175 ± 0.14. For Q2F, the abundance fitness was found to be 0.725 ± 0.2. Consider Q2P, for which the abundance fitness was -0.981 ± 0.28. Turning to Q2M, the abundance fitness was -0.191 ± 0.29.

Turning to Q2I, the abundance fitness was found to be 0.29 ± 0.29. Turning to Q2C, the abundance fitness was -0.248 ± 0.16.

On to A14R, for which the abundance fitness is -0.002 ± 0.09. In the case of A14H, the abundance fitness is -0.209 ± 0.24. As to A14P, the abundance fitness was -0.306 ± 0.24.

In the case of A14F, the abundance fitness is -0.4 ± 0.21. Take A14G: the abundance fitness was -0.236 ± 0.053.

Consider A14Y, for which the abundance fitness was -0.217 ± 0.29.

Regarding A14W, the abundance fitness is -0.382 ± 0.18. The value for A14L was -0.051 ± 0.061. As for A14D, the abundance fitness is -0.041 ± 0.087.

A14E: the abundance fitness is -0.116 ± 0.14. Take A14N: the abundance fitness was -0.276 ± 0.07. With A14S, the abundance fitness was determined as 0.084 ± 0.086. With A14Q, the abundance fitness is -0.189 ± 0.17.

Consider G20S, for which the abundance fitness was -0.488 ± 0.1. The value for G20I was -0.621 ± 0.45; that for G20L was -1.06 ± 0.24.

G20W: the abundance fitness was -0.541 ± 0.089.

For the variant G20Y, the abundance fitness was -0.781 ± 0.28. On to G20P, for which the abundance fitness was -0.813 ± 0.37.

Consider G20E, for which the abundance fitness was -0.954 ± 0.37. For G20A, the abundance fitness is -1.11 ± 0.29. Turning to G20T, the abundance fitness is -0.99 ± 0.17. With G20Q, the abundance fitness was -0.587 ± 0.33. The value for G20H was -0.126 ± 0.16.

As to G20V, the abundance fitness was -0.918 ± 0.25. Turning to G15L, the abundance fitness is -0.503 ± 0.082. The value for G15K was -0.657 ± 0.23. For G15D, the abundance fitness is -0.772 ± 0.3. For G15H the value was -0.946 ± 0.42; for G15W, -0.284 ± 0.14; for G15V, -0.587 ± 0.091. Take G15M: the abundance fitness was -0.934 ± 0.38. Consider G15F, for which the abundance fitness was -0.888 ± 0.34. G15N: the abundance fitness is -0.485 ± 0.1. As to G15A, the abundance fitness is -0.761 ± 0.053. The value for G15E was -0.758 ± 0.21.

With G15C, the abundance fitness was -0.652 ± 0.17. As to G15I, the abundance fitness amounted to 0.246 ± 0.38. As for Q17G, the abundance fitness is -0.108 ± 0.074. For Q17Y the value was -0.136 ± 0.13; for Q17K, -0.143 ± 0.11; for Q17D, -0.273 ± 0.16. Q17M: the abundance fitness was -0.531 ± 0.21. With Q17T, the abundance fitness was determined as 0.003 ± 0.1. In the case of Q17C, the abundance fitness was found to be 0.016 ± 0.12. Take Q17F: the abundance fitness was -0.469 ± 0.14. Consider Q17W, for which the abundance fitness is -0.376 ± 0.1. Take Q17S: the abundance fitness is -0.087 ± 0.079. For Q17R the value was -0.2 ± 0.082; for Q17N, -0.295 ± 0.42. With Q17L, the abundance fitness is -0.014 ± 0.053.

Take Q17A: the abundance fitness is -0.031 ± 0.088. Regarding Q17I, the abundance fitness is -0.066 ± 0.15. Consider Q17V, for which the abundance fitness was -0.244 ± 0.085. Consider Q17E, for which the abundance fitness is -0.441 ± 0.067. Take Q17P: the abundance fitness is -0.63 ± 0.26. With Q17H, the abundance fitness is -0.328 ± 0.29. Consider E8A, for which the abundance fitness was -0.381 ± 0.072.

Consider E8W, for which the abundance fitness was -0.153 ± 0.048. The value for E8I was -0.339 ± 0.099; that for E8K was -1 ± 0.36; that for E8S was -0.65 ± 0.064. For E8V the value was -0.596 ± 0.12. Take E8N: the abundance fitness is -0.707 ± 0.37. E8M: the abundance fitness is -0.238 ± 0.12.

Turning to E8Y, the abundance fitness is 0.233 ± 0.13. For E8R the value was -0.638 ± 0.091; for E8T, -0.485 ± 0.15; for E8P, -0.598 ± 0.12. For E8Q, the abundance fitness is -0.566 ± 0.19.

Take E8G: the abundance fitness was -0.394 ± 0.099. The value for E8L was -0.19 ± 0.062. In the case of E21C, the abundance fitness is -0.432 ± 0.12. For the variant E21A, the abundance fitness was -0.314 ± 0.05. Consider E21F, for which the abundance fitness is -0.1 ± 0.12.

E21R: the abundance fitness is -0.704 ± 0.12.

As for E21Y, the abundance fitness was -0.123 ± 0.14. With E21W, the abundance fitness is -0.502 ± 0.083. As for E21M, the abundance fitness is -0.829 ± 0.26. On to E21T, for which the abundance fitness is -0.478 ± 0.064. Turning to E21K, the abundance fitness is -0.44 ± 0.075. For E21H the value was -0.598 ± 0.32.

Turning to E21S, the abundance fitness was -0.323 ± 0.085. Consider E21D, for which the abundance fitness is -0.26 ± 0.14. E21Q: the abundance fitness is -0.634 ± 0.12. Take E21G: the abundance fitness is -0.389 ± 0.084. K13N: the abundance fitness was -0.232 ± 0.057. On to K13S, for which the abundance fitness was -0.128 ± 0.049.

As to K13R, the abundance fitness turned out to be 0.017 ± 0.066. In the case of K13V, the abundance fitness is -0.021 ± 0.048. K13Q: the abundance fitness turned out to be 0.076 ± 0.084. As for K13D, the abundance fitness is -0.332 ± 0.21. Regarding K13H, the abundance fitness is -0.13 ± 0.14.

K13F: the abundance fitness was -0.24 ± 0.22. Regarding K13Y, the abundance fitness is -0.072 ± 0.11.

With K13M, the abundance fitness is -0.013 ± 0.069.

As for K13I, the abundance fitness is -0.163 ± 0.16. K13E: the abundance fitness was -0.25 ± 0.18.

For the variant K13L, the abundance fitness is -0.112 ± 0.087.

With K13A, the abundance fitness is -0.242 ± 0.1. For K13G the value was -0.184 ± 0.05; for K13C, -0.534 ± 0.16. Turning to W4P, the abundance fitness was -0.216 ± 0.28.

Regarding W4D, the abundance fitness was -0.171 ± 0.33. As to W4F, the abundance fitness is -0.023 ± 0.12.

For W4R, the abundance fitness was -0.747 ± 0.19. W4M: the abundance fitness was -0.27 ± 0.21. For W4C, the abundance fitness was -0.599 ± 0.23.

For the variant W4L, the abundance fitness was -0.41 ± 0.09. Consider W4K, for which the abundance fitness was -0.426 ± 0.38. W4G: the abundance fitness is -0.637 ± 0.15.

As for W4A, the abundance fitness was -0.804 ± 0.19. Turning to W4T, the abundance fitness is -0.258 ± 0.3.

With W4V, the abundance fitness is -0.61 ± 0.23. Regarding W4Q, the abundance fitness is -0.266 ± 0.17. Take W4H: the abundance fitness is -0.391 ± 0.16. For W4S the value was -0.248 ± 0.098. Turning to W4I, the abundance fitness was -0.131 ± 0.1.

On to W4E, for which the abundance fitness is -0.126 ± 0.22. For W4Y, the abundance fitness is -0.325 ± 0.059.

T5M: the abundance fitness is -0.21 ± 0.088. For T5L the value was -0.75 ± 0.13; for T5R, -0.557 ± 0.051; for T5D, -0.38 ± 0.14. Consider T5V, for which the abundance fitness is -0.789 ± 0.11. With T5Q, the abundance fitness was -0.502 ± 0.2. On to T5G, for which the abundance fitness was -0.421 ± 0.14.

Turning to T5F, the abundance fitness is -0.826 ± 0.11. For T5S the value was -0.105 ± 0.056; for T5K, -0.161 ± 0.17; for T5E, -0.272 ± 0.16. Take T5W: the abundance fitness was -0.631 ± 0.26. Take T5I: the abundance fitness is -0.669 ± 0.31. With T5P, the abundance fitness is -0.398 ± 0.19. Regarding E10K, the abundance fitness is -0.314 ± 0.095.

In the case of E10Q, the abundance fitness was -0.177 ± 0.13.

Take E10G: the abundance fitness is -0.38 ± 0.095. For the variant E10T, the abundance fitness was -0.102 ± 0.097. As for E10D, the abundance fitness was -0.486 ± 0.25. For E10V, the abundance fitness is -0.359 ± 0.12. Take E10M: the abundance fitness is -0.055 ± 0.13.

E10H: the abundance fitness amounted to 0.044 ± 0.16. The value for E10S was -0.311 ± 0.12.

Regarding E10W, the abundance fitness is -0.414 ± 0.11. For E10F, the abundance fitness is -0.255 ± 0.14. As for E10I, the abundance fitness is -0.529 ± 0.17. Regarding E10C, the abundance fitness is -0.277 ± 0.065.
